For series [1] the following is noted: cited from earlier work. An excerpt:
Potential ambiguity in these predictions arises due to the nature of the ^212Pb decay series. The decay of ^212Pb to ^212Bi might lead to a decoupling of the progeny ^212Bi from the chelator, adding uncertainty to the biodistribution of radioactivity, especially the α-emitters (i.e., ^212Bi, ^212Po). Using particle and heavy ion transport code system (PHITS) modeling, we have shown that α-particles contribute to more than 90% of dose deposition in 10 µm diameter single cells and 1 cm diameter micro-metastasis, while the dose from β-particles becomes more significant ...

Series [2] is described as follows: Stability of radiopeptide in saline, radio-HPLC. In kind it is physicochemical. As to conditions: 24 h storage in saline, C18, fractions counted on gamma counter. The method, then:
Using [^203Pb]Pb-PSC-PEG-T surrogate, radiochemical stability of [^203Pb]Pb-PSC-PEG-T in saline was monitored for 72 h. Similarly, single species of [^212Bi]Bi-PSC-PEG-T in saline were also monitored for 5 h (five half-lives of ^212Bi). [^203Pb]Pb-PSC-PEG-T and [^212Bi]Bi-PSC-PEG-T were radiolabeled and purified on Sep-Pak® C18 SPE columns as previously described. Next, 7.4 MBq mL^−1 of purified [^203Pb]Pb-PSC-PEG-T and [^212Bi]Bi-PSC-PEG-T were stored in saline supplemented with 5% EtOH and 1 mg mL^−1 sodium ascorbate for 72 h and 5 h, respectively, followed by analysis of radiochemical purity by radio-iTLC method. Then, radiochemical stability of [^212Pb]Pb-PSC-PEG-T and progeny [^212Bi]Bi-PSC-PEG-T were determined by radio-iTLC after storage of 37 MBq mL^−1 radiolabeled [^212Pb]Pb-PSC-PEG-T in saline for 24 h, and further confirmed by radio-HPLC analysis. In human serum, radiochemical stability of [^212Pb]Pb-PSC-PEG-T and progeny [^212Bi]Bi-PSC-PEG-T were determined after incubation of 3.7 MBq [^212Pb]Pb-PSC-PEG-T in 1 mL human serum at 37 °C for 24 h. In addition, metabolic stability of Pb-PSC-PEG-T radiopeptide in serum was determined by radio-HPLC after incubating [^203Pb]Pb-PSC-PEG-T surrogate in human serum for 55 h (five half-lives of ^212Pb). […] The supernatant was collected and analyzed on radio-HPLC. […]

The test system of series [3] is SSTR2-positive AR42J xenografts. The series can be described thus: in vivo. Set-up: species or system mice. As to conditions: female, athymic nude, mouse, iv, 74 kBq, 1 h. On the procedure:
(§1) Biodistribution of [^212Pb]Pb-PSC-PEG-T and progeny ^212Bi^3+ was determined in two animal models, including female naïve CD-1Elite mice and athymic mice bearing AR42J tumor xenografts. SSTR2-positve AR42J cells were cultured in 10% Minimum Essential Medium (MEM) supplemented with 10% fetal bovine serum (FBS), 100 units mL^−1 penicillin, and 100 units mL^−1 streptomycin 37 °C in a humidified atmosphere (5% CO2). All animal studies were performed in accordance with the Guide for the Care and Use of Laboratory Animals, according to protocols approved by the University of Iowa Animal Care and Use Committee (protocol#1122453 approved on 16 February 2022). Xenograft of AR42J tumor was developed by subcutaneous (s.c.) injection of 1 × 10^6 cells at the left shoulder of female athymic nude mice. [^212Pb]Pb-PSC-PEG-T was radiolabeled and purified as described above, and kept at room temperature away from light for 3 h before injection, to allow progeny ^212Bi to approach equilibrium before injection. Upon assay, 74 kBq [^212Pb]Pb-PSC-PEG-T (peptide mass = 5–10 pmole) were injected via tail vein (n = 2–3). Animals were euthanized at designated time points (1, 5, 24 h for naïve CD-1 mice; 1, 4 h for AR42J-bearing mice). Organs of interest and tumors were collected, rinsed, and weighed. Radioactivity of ^212Pb and ^212Bi in each sample was measured on an automated gamma counter by 238 keV and 583 keV gamma peaks, respectively. ^212Bi was purified from the generator eluate on RE2 resin and collected in pH = 6 sodium acetate as described above. Biodistribution of free ^212Bi in normal organs was determined at 2 h post injection of 74 kBq ^212Bi in naïve female CD-1 Elite mice (n = 3). Radioactivity in samples was decay corrected and data were expressed as percent injected dose per gram of tissue (%ID/g). SPECT imaging of [^203Pb]Pb-PSC-PEG-T and [^212Pb]Pb-PSC-PEG-T in female athymic nude mice bearing AR42J xenograft (n = 2) was conducted on Bioemtech Gamma-Eye Imaging system (Bioemtech, Athens, Greece) with 30–500 keV dynamic range and 1.9 mm spatial resolution. Whole body 2D-SPECT imaging of [^203Pb]Pb-PSC-PEG-T and [^212Pb]Pb-PSC-PEG-T were collected at 3 h and 24 h (n = 2) post injection of 1.8 MBq [^203Pb]Pb-PSC-PEG-T (52 MBq nmole^−1) and 3.7 MBq [^212Pb]Pb-PSC-PEG-T (20 MBq nmole^−1). SPECT images were generated by acquiring ten 30 s projections. Imaging data were reconstructed and normalized to percent of injected dose (%ID) in tumor and kidneys based on region of interest (ROI) analysis on VISUAL-Eyes software (Bioemtech, Athens, Greece). Animals were euthanized after conclusion of the study at 24 h post injection. Tumor xenografts and organs of interest were collected and weighed. Radioactivity of ^203Pb or ^212Pb was determined on automated gamma counter and normalized to %ID/g.

A further series relates to AR42J xenograft. Nature of the series: in vivo. Set-up: species or system mice. As to conditions: female, athymic nude, mouse, 24 h. The method, then:
as §1

Series [4] in a line: Radiochemical stability of radiometal complex in saline, radio-iTLC. In kind it is physicochemical. As to conditions: 37 MBq mL^-1 in saline at room temperature for 24 h, regardless of PSC-PEG-T concentration (1, 3, 5 µM). On the procedure: Using [^203Pb]Pb-PSC-PEG-T surrogate, radiochemical stability of [^203Pb]Pb-PSC-PEG-T in saline was monitored for 72 h. Similarly, single species of [^212Bi]Bi-PSC-PEG-T in saline were also monitored for 5 h (five half-lives of ^212Bi). [^203Pb]Pb-PSC-PEG-T and [^212Bi]Bi-PSC-PEG-T were radiolabeled and purified on Sep-Pak® C18 SPE columns as previously described. Next, 7.4 MBq mL^−1 of purified [^203Pb]Pb-PSC-PEG-T and [^212Bi]Bi-PSC-PEG-T were stored in saline supplemented with 5% EtOH and 1 mg mL^−1 sodium ascorbate for 72 h and 5 h, respectively, followed by analysis of radiochemical purity by radio-iTLC method. Then, radiochemical stability of [^212Pb]Pb-PSC-PEG-T and progeny [^212Bi]Bi-PSC-PEG-T were determined by radio-iTLC after storage of 37 MBq mL^−1 radiolabeled [^212Pb]Pb-PSC-PEG-T in saline for 24 h, and further confirmed by radio-HPLC analysis. In human serum, radiochemical stability of [^212Pb]Pb-PSC-PEG-T and progeny [^212Bi]Bi-PSC-PEG-T were determined after incubation of 3.7 MBq [^212Pb]Pb-PSC-PEG-T in 1 mL human serum at 37 °C for 24 h. In addition, metabolic stability of Pb-PSC-PEG-T radiopeptide in serum was determined by radio-HPLC after incubating [^203Pb]Pb-PSC-PEG-T surrogate in human serum for 55 h (five half-lives of ^212Pb). Following the incubation, serum protein was precipitated in ice-cold methanol (1:1.5 v/v) for 10 min, followed by centrifugation at 10,000× g for 10 min. The supernatant was collected and analyzed on radio-HPLC.
In radio-iTLC analysis, 0.1 M NaOAc with 1 mM DTPA was used as mobile phase for ^203Pb, ^212Pb, ^212Bi. Citric acid (0.1 M) was used as mobile phase for ^68Ga. Upon radio-iTLC analysis, 2 µL aliquot sample was spotted on the radio-iTLC strips (2 × 10 cm) and developed in the mobile phase. Radioactivity of ^203Pb and ^212Pb was measured on NaI(Tl) gamma spectroscope using 279 keV and 238 keV gamma peaks, respectively. Radioactivity of ^212Bi on radio-iTLC was measured on the Ludlum Model 3030 α-particle counter. Radio-HPLC analysis was conducted on Agilent 1260 (Agilent, Santa Clara, CA, USA). Binary mobile phases were applied to run 5–60% phase B (acetonitrile) over phase A (0.1% TFA in water) over 10 min on ZORBAX RR Eclipse XDB-C18 column (4.6 × 150 mm, 5 µm). Radioactivity of ^203Pb was measured on flow-through 105S-1 single channel radiation detector (Corroll & Ramsey, Fort Collins, CO, USA). To measure ^212Pb and ^212Bi activity on radio-HPLC, eluate was collected every 10 s on a HPLC fraction collector. Radioactivity of ^212Pb and ^212Bi in each collected eluate was measured on Cobra II automated gamma counter using 238 keV and 583 keV gamma peaks immediately after collection.

Turning to `NC(=O)CN1CCN(CC(N)=O)CCN(CC(N)=O)CCN(CC(N)=O)CC1` [TCMC, 1,4,7,10-Tetrakis(carbamoylmethyl)-1,4,7,10-tetraazacyclododecane], the “^212Bi^3+ ejected from chelator” value in series [1] (TCMC chelator in an anti-CD37 radioimmunoconjugate) is given as 16%.

Turning to `O=C(O)CN1CCN(CC(=O)O)CCN(CC(=O)O)CCN(CC(=O)O)CC1` [DOTA, 1,4,7,10-tetraazacyclododecane-1,4,7,10-tetraacetic acid], the “^212Bi^3+ released from chelator” value in series [1] (after β decay of ^212Pb) is given as “approximately 36%”.

Consider `C[C@@H](O)[C@@H]1NC(=O)[C@H](CCCCN)NC(=O)[C@@H](Cc2c[nH]c3ccccc23)NC(=O)[C@H](Cc2ccc(O)cc2)NC(=O)[C@@H](NC(=O)[C@@H](Cc2ccccc2)NC(=O)CCOCCOCCNC(=O)CN2CCN(CC(=O)O)CCN(CC(N)=O)CCN(CC(=O)O)CC2)CSSC[C@@H](C(=O)N[C@H](CO)[C@@H](C)O)NC1=O` [[^212Pb]Pb-PSC-PEG-T] [metal not drawn], for which the “radiochemical purity (radiometal remained incorporated as radiopeptide)” value in series [2] is recorded as above 95%. Also, in series [3], the “accumulation in adrenal glands” value was 3.6 %ID/g, the accumulation in bones was 1.4 %ID/g, the accumulation in kidneys was found to be 28.1 %ID/g and the accumulation in liver is recorded as 0.8 %ID/g. Further, the accumulation in spleen in series [3] turned out to be 0.6 %ID/g. This molecule also had an activity in lungs with AR42J xenograft of 0.3 %ID/g. In addition, the “^212Pb remained in PSC-PEG-T” value in series [4] is reported as “More than 99.6%”.

The record behind these values is publication PMC9966725, “Preclinical Evaluation of a Lead Specific Chelator (PSC) Conjugated to Radiopeptides for ^203Pb and ^212Pb-Based Theranostics” (Pharmaceutics, 2023).
